Source: paper PMC9266650

Molecular target: T148-ADP-ribosylated-actin (100% TccC3-ADP-ribosylated actin) (not stated (purified from rabbit or chicken skeletal muscle)), P68135
Details: remark: other sources report otherwise

other: 15 fold
B1: Actin-depolymerizing factor, P60981 1-165 (natural protein)
chain: MASGVQVADEVCRIFYDMKVRKCSTPEEIKKRKKAVIFCLSADKKCIIVEEGKEILVGDVGVTITDPFKHFVGMLPEKDCRYALYDASFETKESRKEELMFFLWAPELAPLKSKMIYASSKDAIKKKFQGIKHECQANGPEDLNRACIAEKLGGSLIVAFEGCPV
